Reference: US20120328590A1

Target: actin (endogenous nuclear and cytoplasmic actin of Mel-Juso human melanoma cells) (human)
Assay: cell-based or functional assay

| Substance | TUNEL-positive (apoptotic) cells by laser scanning cytometry, mean [%] | cell survival in Colony Forming Assay (CFA), compared to Cat-GFP control [%] |
| --- | --- | --- |
| DNase 1 construct C11 (signal peptide deleted, A114F actin-binding-site mutation, SV-40 NLS at the C-terminus) (from UniProt P24855 23-282) (enzyme) | 11 | 23.2 |
| DNase 1 construct C13 (signal peptide deleted, A114F actin-binding-site mutation, SV-40 NLS at the N-terminus) (from UniProt P24855 23-282) (enzyme) | 5.4 | 32.4 |
